Data reported in US20220213176A1 (SHANGHAITECH UNIVERSITY, published 2022).

T1: HCoV-HKU1 spike (HCoV-HKU1, UniProt Q5MQD0 13-1356)
T1 construct: whole, on cells
T1 sequence: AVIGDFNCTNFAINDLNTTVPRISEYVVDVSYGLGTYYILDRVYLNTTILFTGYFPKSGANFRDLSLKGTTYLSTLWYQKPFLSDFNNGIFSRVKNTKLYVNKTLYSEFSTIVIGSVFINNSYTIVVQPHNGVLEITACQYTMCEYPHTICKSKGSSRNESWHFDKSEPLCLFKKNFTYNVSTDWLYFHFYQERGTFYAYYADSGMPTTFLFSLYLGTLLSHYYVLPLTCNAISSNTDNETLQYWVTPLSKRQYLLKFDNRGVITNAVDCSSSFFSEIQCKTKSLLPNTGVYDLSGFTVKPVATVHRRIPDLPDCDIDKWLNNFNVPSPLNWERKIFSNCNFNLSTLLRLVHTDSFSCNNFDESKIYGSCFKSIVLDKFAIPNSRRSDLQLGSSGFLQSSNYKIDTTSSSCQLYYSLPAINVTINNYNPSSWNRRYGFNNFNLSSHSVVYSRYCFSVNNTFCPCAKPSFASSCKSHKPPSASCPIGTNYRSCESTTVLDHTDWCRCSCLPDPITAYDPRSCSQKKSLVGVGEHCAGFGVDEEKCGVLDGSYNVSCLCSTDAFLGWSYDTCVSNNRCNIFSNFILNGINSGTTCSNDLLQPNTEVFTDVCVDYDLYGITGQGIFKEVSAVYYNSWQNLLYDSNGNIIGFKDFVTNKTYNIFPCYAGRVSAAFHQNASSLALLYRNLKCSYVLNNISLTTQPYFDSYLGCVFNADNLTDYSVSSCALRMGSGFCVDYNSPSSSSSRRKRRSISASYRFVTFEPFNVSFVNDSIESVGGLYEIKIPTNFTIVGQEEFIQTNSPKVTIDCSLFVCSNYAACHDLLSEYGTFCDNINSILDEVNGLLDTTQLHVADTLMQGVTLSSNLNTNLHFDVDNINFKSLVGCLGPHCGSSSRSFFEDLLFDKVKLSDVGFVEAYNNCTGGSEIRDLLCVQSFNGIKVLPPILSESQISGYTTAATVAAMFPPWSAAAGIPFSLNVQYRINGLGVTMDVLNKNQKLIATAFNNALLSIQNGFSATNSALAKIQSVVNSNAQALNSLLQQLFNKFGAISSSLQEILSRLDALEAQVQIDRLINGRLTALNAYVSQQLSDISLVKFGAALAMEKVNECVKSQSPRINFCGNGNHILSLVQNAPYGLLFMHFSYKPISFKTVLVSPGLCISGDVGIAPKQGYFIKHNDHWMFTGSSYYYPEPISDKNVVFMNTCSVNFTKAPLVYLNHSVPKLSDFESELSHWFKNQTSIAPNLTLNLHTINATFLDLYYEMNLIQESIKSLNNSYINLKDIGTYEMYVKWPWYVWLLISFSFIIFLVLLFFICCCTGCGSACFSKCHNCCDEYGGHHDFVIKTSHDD

T2: HCoV-NL63 spike (HCoV-NL63, UniProt Q6Q1S2 19-1356)
T2 construct: whole, on cells
T2 sequence: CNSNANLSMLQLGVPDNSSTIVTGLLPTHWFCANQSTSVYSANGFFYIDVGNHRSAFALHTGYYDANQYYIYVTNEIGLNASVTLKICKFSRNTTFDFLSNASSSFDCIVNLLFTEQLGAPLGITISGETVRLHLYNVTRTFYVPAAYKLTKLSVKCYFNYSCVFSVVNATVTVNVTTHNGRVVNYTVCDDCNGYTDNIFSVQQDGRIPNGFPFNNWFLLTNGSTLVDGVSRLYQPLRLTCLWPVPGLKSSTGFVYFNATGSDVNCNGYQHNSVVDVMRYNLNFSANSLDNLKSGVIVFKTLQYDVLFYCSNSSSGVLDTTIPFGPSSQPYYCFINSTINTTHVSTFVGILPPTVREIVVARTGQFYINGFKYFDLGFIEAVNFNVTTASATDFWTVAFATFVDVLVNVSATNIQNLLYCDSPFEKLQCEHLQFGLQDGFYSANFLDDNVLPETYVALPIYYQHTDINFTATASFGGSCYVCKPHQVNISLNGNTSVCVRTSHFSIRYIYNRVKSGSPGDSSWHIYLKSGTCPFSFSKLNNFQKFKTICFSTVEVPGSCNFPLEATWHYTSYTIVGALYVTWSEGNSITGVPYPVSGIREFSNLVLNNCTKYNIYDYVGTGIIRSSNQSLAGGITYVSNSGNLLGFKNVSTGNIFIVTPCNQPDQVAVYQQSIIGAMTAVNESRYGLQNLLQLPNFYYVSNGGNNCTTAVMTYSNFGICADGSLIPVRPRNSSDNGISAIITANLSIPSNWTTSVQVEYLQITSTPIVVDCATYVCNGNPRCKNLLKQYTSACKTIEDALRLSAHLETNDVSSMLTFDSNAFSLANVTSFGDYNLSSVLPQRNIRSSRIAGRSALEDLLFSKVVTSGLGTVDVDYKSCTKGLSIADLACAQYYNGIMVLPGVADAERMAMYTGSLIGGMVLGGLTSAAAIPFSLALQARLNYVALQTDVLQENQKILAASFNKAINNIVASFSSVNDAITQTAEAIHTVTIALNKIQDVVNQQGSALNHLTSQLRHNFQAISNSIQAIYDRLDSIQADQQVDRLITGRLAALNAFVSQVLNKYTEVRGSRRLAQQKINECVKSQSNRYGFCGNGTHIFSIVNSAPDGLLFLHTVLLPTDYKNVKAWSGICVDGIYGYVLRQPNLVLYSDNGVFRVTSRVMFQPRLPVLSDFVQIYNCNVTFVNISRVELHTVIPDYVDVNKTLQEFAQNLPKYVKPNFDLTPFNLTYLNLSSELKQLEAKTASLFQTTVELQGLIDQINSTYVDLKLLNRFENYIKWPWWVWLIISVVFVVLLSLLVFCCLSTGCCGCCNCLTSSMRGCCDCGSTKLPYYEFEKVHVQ

B1: S-E6 (antibody, V domains shown)
VH: QVTLRESGPGLVKPSETLSLTCAVSGGSLSSVNYYWSWIRQHPGKGLEWIGYIYYSGSTNYNPSLKSRVTMSLDTSKNQFSLKLSSVTAADTAVYYCATPGAIMGALHIWGQGTLVTVSS
VL: QAVLTQPSSASSTPGQRVIISCSGSSSNIGSNTVSWYQQVPGAAPKLLIYFDYRRPSGVPDRFSGTRSGTSASLGISGLQSEDEADYYCAAWDDSLSAWVFGRGTKLTVLG
notes: also called S-E6 dimer; dimer S-E6
B2: S-B8 (antibody, V domains shown)
VH: QVQLVQSGGGLIQPGGSLRLSCAASGFTVSLSHMNWVRQAPGKGLEWVSITYGDGNSDYADSVKGRFTISRDNSKNTLYLQMNSLRAEDTAVYYCAREYYYGMDVWGQGTTVTVSS
VL: not shown
notes: also called S-B8 dimer
B3: S-D4 (antibody, V domains shown)
VH: QVQLQESGGGVVQPGRSLRLSCEVSGFTFSDYGMHWVRQAPGKGLEWVAVIWSEGSTEYYADSVKGRFTISRDNSKDTLYLQMNSLRAEDTAVYYCARPGYPTSTDRSPAAAGARQYYYYGMDVWGQGTTVTVSS
VL: NFMLTQPHSVSESPGKTVTISCTRSGGSGAANYVQWYQQRPGSSPTTLIYEDSRRPPGVPDRFSGSVDTSSNSASLTISGLQTEDEADYYCQSYDSSNHVVFGGGTKLTVLG
notes: also called S-D4 dimer; S-D4 IgG4

Molecular target: T1, HCoV-HKU1 spike
Assay: FACS, transfected HEK293T cells, IgG4 antibody

Question: Does B1 bind?
Answer: no binding

Question: Does B2 bind?
Answer: no binding

Question: Does B3 bind?
Answer: no binding

Molecular target: T2, HCoV-NL63 spike
Assay: FACS, transfected HEK293T cells, IgG4 antibody

Question: Does B1 bind?
Answer: no binding

Question: Does B2 bind?
Answer: no binding

Question: Does B3 bind?
Answer: no binding
